Measurements as given in patent US20210063414A1, “METHODS FOR PREVENTING AND/OR TREATING BONE LOSS CONDITIONS BY MODULATING IRISIN” (Dana-Farber Cancer Institute, Inc., priority 2018, published 2021).

Target: T1, MLO-Y4 cell surface proteins (Mus musculus, UniProt Q9D051)
T1 construct: endogenous in cells; host or cells: MLO-Y4
T1 sequence (Q9D051 31-359): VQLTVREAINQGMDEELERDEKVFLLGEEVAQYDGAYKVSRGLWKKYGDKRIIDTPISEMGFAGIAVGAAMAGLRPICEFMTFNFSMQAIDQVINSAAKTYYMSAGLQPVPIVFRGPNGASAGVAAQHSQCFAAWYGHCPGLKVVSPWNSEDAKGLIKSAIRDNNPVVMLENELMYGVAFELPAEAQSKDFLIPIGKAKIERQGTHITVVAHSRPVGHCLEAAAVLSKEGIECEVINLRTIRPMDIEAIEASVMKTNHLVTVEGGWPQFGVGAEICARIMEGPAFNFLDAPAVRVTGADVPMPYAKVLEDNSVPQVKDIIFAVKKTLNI
Assay: Crosslinking/co-immunoprecipitation/mass spectrometry (TMT quantitative proteomics) to identify irisin receptors
Assay type: binding
Settings: co-precipitated protein Pdhb (ODPB_MOUSE)
How it was run: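 Relative protein abundance came from 6-plex TMT MS3 quantitation on an Orbitrap Fusion Lumos, after in-gel trypsin digestion of Coomassie-stained SDS-PAGE lanes. Input was a Ni-NTA pulldown (250 mM imidazole elution) of lysates from murine MLO-Y4 cells. These cells were treated on ice with His-tagged irisin or adipsin (10 nM, 20 min) in serum-free medium, then crosslinked with 1.5 mM DTSSP for 30 min.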

TMT signal-to-noise ratio: 365.712
Substance: adipsin
